Assay [1] concerns HEK-Blue™ CD40 cells. Briefly: HEK-Blue CD40 SEAP reporter co-culture with transduced Jurkat cells. In kind it is cell-based. As to conditions: ligand 24 h (1 μM Shield-1, 50 μM TMP or 1 μM Bazedoxifene), recombinant soluble CD40L as standard. As to the method:
Jurkat cells transduced with OT-001661, OT-001685, OT-001662, OT-001666, or OT-001667 were co-cultured with HEK-Blue™ CD40 cells (Invivogen, San Diego, Calif.). Cocultures were treated with ligands (1 μM Shield-1, 50 μM TMP, 1 μM Bazedoxifene (BZD) or vehicle control) for 24 hours and the secreted embryonic alkaline phosphatase (SEAP) reporter levels were measured in the media. All vehicle treated samples had background SEAP activity. Recombinant soluble CD40L was used as the standard in the experiments.

For assay [2], the system named is Jurkat cells. Briefly: Surface expression of CD40L by FACS in lentivirally transduced Jurkat cells. The format is cell-based. Particulars: for CD40L positive percent of live cells / Geometric Mean of CD40L fluorescent intensity: FACS. As for the experimental part:
50,000 Jurkat cells were transduced with lentiviruses corresponding to the constructs. OT-001661, OT-001685, OT-001662, or OT-001666 and cultured for 48h. Cells were split and incubated with ligands for 24h before analysis by flow cytometry.
Jurkat cells were treated with one of the following: 1 μM Shield-1, 50 μM TMP, 1 μM Bazedoxifene (BZD) or vehicle control. Surface expression of CD40L was measured using FACS and the results are show in Table 9. All values were normalized to mode.

The subject of assay [3] is CD8 positive T cells. Briefly: CD40L MFI by FACS in transduced CD8 positive T cells. In kind it is cell-based. As for the experimental part: Regulation of ecDHFR (R12Y, Y100I) DRD based construct OT-001662 and ER (N413D) DRD based construct OT-001666 were tested in CD8 positive T cells. For OT-001662, expressing cells, ligand was added 6 days after viral transduction at a dose of 50 μM TMP. OT-001666 expressing cells were treated with 0.5 μM Bazedoxifene or vehicle control, 5 days after transduction. Approximately 15-30k cells were analyzed per sample by FACS. All samples were compared to empty vector control as well as the constitutively expressed construct, OT-001661. Table 11 provides the mean fluorescence intensities (MFIs) obtained with each sample.

The subject of assay [4] is CD8+ T cells. Briefly: Ligand dose response, % CD40L positive cells, CD8+ T cells. In kind it is cell-based. As to the method: (§1) Ligand dose response curve experiments were performed with increasing doses of ligand using OT-001662 and OT-001666 constructs in both CD4+ as well as CD8+ T cells.
(§2) The experiments were conducted using three different volumes of virus for transduction i.e. 0.5, 2 and 10 μL.

Assay [5] relates to CD4+ T cells. Briefly: Ligand dose response, % CD40L positive cells, CD4+ T cells. The format is cell-based. As for the experimental part: as §1, §2
The subject of assay [6] is T cells. Briefly: % CD40L positive cells in vivo, transduced T cells in NSG mice dosed with TMP. Particulars: constitutive construct. Also noted: species or system NSG female mice. As to the method:
Based on the in vitro data, regulatability of CD40L constructs in vivo was tested. 10-week old NSG female mice were injected with T cells transduced with one of the following constructs empty vector, OT-001661, and OT-001662 (day 0). On day 1, mice were pre-bled prior to dose with ligand. On day 2, mice were dosed every 4 hours with TMP at 500 mg/kg body weight of the mouse or vehicle control. Two hours after every dose, blood was collected from the mice to measure CD40L levels. On day 3, i.e. 24 hours after the first dose, mice were terminally bled for analysis. The values in bold represent the average values for each bleed.

The test system of assay [7] is T cells (CD4 and CD8 positive). Briefly: CD40L MFI in vitro in CD4 and CD8 positive T cells, 10 μM TMP. The format is cell-based. As to conditions: constitutive, ligand not given. As for the experimental part: T cells were transduced with OT-001662 and then treated with 10 μM TMP on day 4. CD40L expression was analyzed by FACS both in the CD4 and CD8 positive T cell populations.

The mark [8] stands for this setting: ligand 24 h (1 μM Shield-1 OT-001685, 50 μM TMP OT-001662, 1 μM Bazedoxifene OT-001666).
[9] abbreviates: vehicle 24 h (Ethanol 0.2% OT-001685, DMSO 0.5% OT-001662, DMSO 0.01% OT-001666).
[10] abbreviates: constitutive construct, no DRD, no ligand.

“And” between values parts separate entries of the source, which are not always exact repeats. Equal values may be shown once.

B1: OT-001666 (Met; ER (305-549 of WT, L384M, N413D, M421G, G521R, Y537S); Histidine; CD40L; stop) (ligand)
chain: MSLALSLTADQMVSALLDAEPPILYSEYDPTRPFSEASMMGLLTNLADRELVHMINWAKRVPGFVDLTLHDQVHLLECAWMEILMIGLVWRSMEHPGKLLFAPNLLLDRDQGKCVEGGVEIFDMLLATSSRFRMMNLQGEEFVCLKSIILLNSGVYTFLSSTLKSLEEKDHIHRVLDKITDTLIHLMAKAGLTLQQQHQRLAQLLLILSHIRHMSNKRMEHLYSMKCKNVVPLSDLLLEMLDAHRLHMIETYNQTSPRSAATGLPISMKIFMYLLTVFLITQMIGSALFAVYLHRRLDKIEDERNLHEDFVFMKTIQRCNTGERSLSLLNCEEIKSQFEGFVKDIMLNKEETKKENSFEMQKGDQNPQIAAHVISEASSKTTSVLQWAEKGYYTMSNNLVTLENGKQLTVKRQGLYYIYAQVTFCSNREASSQAPFIASLCLKSPGRFERILLRAANTHSSAKPCGQQSIHLGGVFELQPGASVFVNVTDPSQVSHGTGFTSFGLLKL
For the molecule B1, the “Soluble CD40L” value in assay [1] came to 1824.7 pg/mL. The “CD40L positive percent of live cells” value is listed as 38.4% in assay [2] (setting [8]) and 0.024% in assay [2] (setting [9]). For the same molecule, the “Geometric Mean of CD40L fluorescent intensity” value is 421 in assay [2] (setting [8]) and 21.5 in assay [2] (setting [9]). The “CD40L MFI” value is 33.1 in assay [3] (+Ligand (50 μM TMP OT-001662; 0.5 μM Bazedoxifene OT-001666)) and 35.4 in assay [3] (Vehicle). The “% CD40L positive cells” value in assay [4] (2 μL virus, BZD 0.05 nM) is 0.69%; in assay [4] (2 μL virus, BZD 0.5 nM), 0.52%; in assay [4] (2 μL virus, BZD 5 nM) it was 0.71%; in assay [4] (2 μL virus, BZD 50 nM), 3.32%; in assay [4] (2 μL virus, BZD 500 nM) it was 60%; in assay [4] (10 μL virus, BZD 0.05 nM), 0.5%. Also, the “% CD40L positive cells” value in assay [4] (10 μL virus, BZD 0.5 nM) is reported as 0.2%; in assay [4] (10 μL virus, BZD 5 nM), 0.23%; in assay [4] (10 μL virus, BZD 50 nM) it was 17.7%; in assay [4] (10 μL virus, BZD 500 nM), 68.5%; in assay [5] (2 μL virus, BZD 0.05 nM) it was 8.57%; in assay [5] (2 μL virus, BZD 0.5 nM), 9.25%. Moreover, the “% CD40L positive cells” value in assay [5] (2 μL virus, BZD 5 nM) stood at 11.1%; in assay [5] (2 μL virus, BZD 50 nM) it was 36%; in assay [5] (2 μL virus, BZD 500 nM), 71.8%; in assay [5] (10 μL virus, BZD 0.05 nM), 4.16%; in assay [5] (10 μL virus, BZD 0.5 nM), 4.86%; in assay [5] (10 μL virus, BZD 5 nM) it was 6.42%. The “% CD40L positive cells” value in assay [5] (10 μL virus, BZD 50 nM) is 34%; in assay [5] (10 μL virus, BZD 500 nM), 76.5%.

B2: OT-001661: constitutively expressed full length CD40L construct (protein)
chain: MHMIETYNQTSPRSAATGLPISMKIFMYLLTVFLITQMIGSALFAVYLHRRLDKIEDERNLHEDFVFMKTIQRCNTGERSLSLLNCEEIKSQFEGFVKDIMLNKEETKKENSFEMQKGDQNPQIAAHVISEASSKTTSVLQWAEKGYYTMSNNLVTLENGKQLTVKRQGLYYIYAQVTFCSNREASSQAPFIASLCLKSPGRFERILLRAANTHSSAKPCGQQSIHLGGVFELQPGASVFVNVTDPSQVSHGTGFTSFGLLKL
As for B2, the “% CD40L positive cells in vivo” value is 90.1% in assay [6] (0 hours, average); 80.9% and 87.1% and 84.4% and 107.8% in assay [6] (0 hours, individual values); 62.3% in assay [6] (2 hours, average); 85.6% and 67.4% and 33.3% and 62.7% in assay [6] (2 hours, individual values); 55.8% in assay [6] (24 hours, average); 53.5% and 66.7% and 61.0% and 41.9% in assay [6] (24 hours, individual values). In addition, the figures for the “CD40L MFI in vitro” value in assay [7] (CD4+) and in assay [7] (CD8+) were 24489 and 14352, respectively. In addition, the “Soluble CD40L” value in assay [1] was 9341.40 pg/mL. The “CD40L positive percent of live cells” value in assay [2] (setting [10]) came out at 99.4%. The “Geometric Mean of CD40L fluorescent intensity” value in assay [2] (setting [10]) came out at 10075. The “CD40L expression relative to untransduced cells” value in assay [2] (constitutive construct) is “higher than untransduced cells”.

These data come from patent US20220175781A1, “CD40L COMPOSITIONS AND METHODS FOR TUNABLE REGULATION” (Obsidian Therapeutics, Inc., priority 2019, published 2022).
